B1: Guanylyl cyclase-activating protein 1, P43080 (parent)
chain: MGNVMEGKSVEELSSTECHQWYKKFMTECPSGQLTLYEFRQFFGLKNLSPSASQYVEQMFETFDFNKDGYIDFMEYVAALSLVLKGKVEQKLRWYFKLYDVDGNGCIDRDELLTIIQAIRAINPCSDTTMTAEEFTDTVFSKIDVNGDGELSLEEFIEGVQKDQMLLDTLTRSLDLTRIVRRLQNGEQDEEGADEAAEAAG

Variants of: B1
Settings: Homo sapiens, pH 7.5, Thermal, CD, Tris-HCl 20mM, whole UniProt chain shown

Variant | Tm (KCL 150 mM) | change of melting temperature, mutant - wild type (higher = more stable) (KCL 150 mM) | Tm (KCL and Mg2+ 150 mM and 1 mM) | change of melting temperature, mutant - wild type (higher = more stable) (KCL and Mg2+ 150 mM and 1 mM)
G86R W94L | 42 °C | -7.8 °C | 47 °C | -3.3 °C
G86R W94F | 40.6 °C | -9.2 °C | 47.8 °C | -2.5 °C
G86R | 41.6 °C | -8.2 °C | 46.8 °C | -3.5 °C
